{
  "source": "patent US20230167458A1",
  "about": "“FORSKOLIN-INDUCIBLE PROMOTERS AND HYPOXIA-INDUCIBLE PROMOTERS” (ASKLEPIOS BIOPHARMACEUTICAL, INC., priority 2020, published 2023)",
  "molecules": {"B1": {"name": "RTV-019: synthetic forskolin-inducible promoter, SEQ ID NO: 44; 3× ATF6, 4× AP1(1) and 3× HRE1 TFBS and CMV-MP (nucleic acid)", "DNA": "TGACGTGCTGATGATGCGTAGCTAGTAGTTGACGTGCTGATGATGCGTAGCTAGTAGTTGACGTGCTGATGATGCGTAGCTAGTAGTTGAGTCAGATGATGCGTAGCTAGTAGTTGAGTCAGATGATGCGTAGCTAGTAGTTGAGTCAGATGATGCGTAGCTAGTAGTTGAGTCAGATGATGCGTAGCTAGTAGTCTGCACGTAGATGATGCGTAGCTAGTAGTCTGCACGTAGATGATGCGTAGCTAGTAGTCTGCACGTAGATGATGCGTAGCTAGTAGTGCAGTTAGCGTAGCTGAGGTACCGTCGACGATATCGGATCCAGGTCTATATAAGCAGAGCTCGTTTAGTGAACCGTCAGATCGCCTAGATACGCCATCCACGCTGTTTTGACCTCCATAGAAGATCGCCACC", "modifications": "Synp-RTV-019", "notes": "3× ATF6, 4× AP1(1) and 3× HRE1 TFBS and CMV-MP"}},
  "key": {"[1]": {"tested_on": "Huh7 human liver cell line", "assay": "Luciferase expression from promoters in pAAV vector (with ITRs) in Huh7, forskolin or NKH477 induction", "parameters": "fold induction with forskolin: dose or concentration left out as unconfirmed", "procedure": "The forskolin-inducible promoters RTV-017, RTV-019 and FORCYB1 were then used to drive expression of luciferase in a pAAV vector in the Huh7 human liver cell line. […] This experiment was performed to investigate the effect of the Inverted Terminal Repeats (ITRs) on the activity of the promoters.\nThe cells were seeded, transfected and induced as described above. Luciferase expression was measured as described above. In this experiment, the cells were induced by using 20 pM forskolin or 7.2 pM of the water soluble derivative NKH477."}, "CHO-GS-KSV1 cell line": {"tested_on": "CHO-GS-KSV1 cell line", "assay": "SEAP expression in stably transfected CHO-GS-KSV1, forskolin or NKH477 induction", "format": "cell-based, chinese hamster", "settings": "stable CHO-GS-KSV1, SEAP, forskolin or NKH477", "experimental": "The forskolin-inducible promoters were then tested in a stably transfected CHO-GS-KSV1 cell line.\n• CD-CHO media (Life technologies, CAT #10743029) • Corning 125 mL Polycarbonate Erlenmeyer Flask with Vent Cap (CAT #734-1885). • Gene Pulser® Electroporation Cuvettes, 0.4 cm gap (BioRad, CAT #165-2088) • Gene Pulser Xcell Total System (BioRad, CAT, #1652660) • GS-vector DNA ([…] in 100 μL TE buffer) linearised with Sca1 • Suspension cultures of CHOK1SV GS-KO host cells.\nCell suspensions of 6×10^5 cells per mL were incubated on an orbital shaker set at 8% CO2, 20% O2, 37° C., 85% relative humidity and 140 rpm overnight. 2.86×10^7 cells were centrifuged at 200 g for 3 minutes. Media was then aspirated and cell pellet resuspended in 2 mL fresh CD-CHO media to obtain a concentration of 1.43×10^7 cells per mL. 700 μL of cell suspension was added to each of two electroporation cuvettes each containing […] of linearised DNA in 100 μL of sterile TE buffer (Thermofisher, 12090015). Each cuvette was electroporated, delivering a single pulse of 300V, […] with resistance to infinity. Immediately after delivery of pulse electroplated cells were transferred to Erlenmeyer 125 mL flask containing 20 mL of CD-CHO media pre-warmed to 37° C. Electroporated cells from two cuvettes are combined into a single 125 mL flask to generate one pool of cells. Cells are cultured on an orbital shaker set at 8% CO2, 20% O2, 37° C., 85% relative humidity and 140 rpm. Cells are transferred to fresh CD-CHO media 24 hours after transfection and cell cultures monitored and given fresh CD-CHO media every 2-4 days. Usually after about 10-14 days cell numbers will be high enough to start passaging.\nThe transfected DNA was the pXC-17.4 expression vector (Lonza Biologics plc) where one of the promoter constructs (or a control promoter (CMV-IE) have been cloned upstream of the secreted alkaline phosphatase (SEAP) gene, which had been cloned into the multiple cloning site within the vector expression cassette. Promoters were closed into the pXC-17.4 vector using Gibson assembly. The pXC-17.4 expression vector is designed for making stable cell lines in the CHO-GSK1SV cell line as it contains the […] gene which has been knocked out of the cell line. Therefore, selection of cells in glutamine drop-out medium will select for cells that have stably integrated the plasmid.\nThe responsiveness of the RTV-019 promoter to different concentrations of forskolin and […] was tested in the stably transfected CHO-GS-KSV1 cell line. To this end, the stably transfected CHO-GS cells were seeded at 500,000 cells/ml and allowed to grow for 24 hrs. At this point the cells were induced by addition of the respective concentrations of forskolin and NKH477 and SEAP expression was measured as described below after 24 hours.\nThe promoter activity and inducibility of FMP-02, FORCYB-001, RTV-017, FORCSV-10, FOR-CMC-009, FLP-01 and RTV-019 were also tested in the stably transfected CHO-GS-KSV1 cell line. To this end, the stably transfected CHO-GS cells were seeded at 500,000 cells/ml and allowed to grow for 24 hrs. At this point the cells were exposed to […] forskolin or […] NKH477 for 24 hours. After this point, the SEAP activity in the medium was assessed as described below.\nSEAP Reporter Gene Assay, chemiluminescent (Roche, CAT #11 779 842 001) was used to measure SEAP activity as per the manufacturer's protocol. All reagents and samples were fully pre-equilibrated at room temperature. Culture supernatant was collected from the stably transfected CHO-GS at the specific time points (0 h and 24 h). The supernatant was diluted 1:4 in dilution buffer and heat treated at 65° C. for 30 minutes. The heat-treated sample was then centrifuged for 30 s at maximum speed. 50 μl of the heat-treated sample was then added to 5 μl of inactivation buffer and incubated for 5 min at room temperature. 50 μl of substrate reagent was then added and incubated for 10 min at room temperature. […]"}},
  "data": [
    {"molecule": "B1", "values": [
      {"measurement": "fold induction with forskolin", "setting": "[1]; Huh7", "result": 98, "unit": "fold"},
      {"measurement": "luciferase activity without induction (background)", "setting": "[1]; Huh7", "result": "low background activity"},
      {"measurement": "fold induction with NKH477", "setting": "[1]; Huh7, 7.2 pM NKH477", "result": 86, "unit": "fold"},
      {"measurement": "luciferase activity following induction", "setting": "[1]; Huh7, or 7.2 pM NKH477", "result": "high activity"},
      {"measurement": "relative rank of promoter strength", "setting": "CHO-GS-KSV1 cell line", "result": "strongest"}
    ]}
  ]
}
